Source: PMC7430637
Positions count from the first letter of the chain named. In names and notes the source's numbering stands. One block for each binder: values may come before it.

Legend:
[1] = biological target: T1, FAM-H3(1–15)K9me3 peptide; assay: fluorescence polarisation; FAM-labelled H3(1–15) peptide, recombinant protein titrated; room temperature; as described in ref. 28
T1 chain: ARTKQTARKSTGGKA

[2] = biological target: T1, FAM-H3(1–15)K9me3 peptide; assay: fluorescence polarization; settings: chain shown with the change; read at the highest protein concentration of the titration, about 50 µM on the x axis; parent: est. 0.28; read off a plot
[3] = biological target: T2, FAM-H3(1-15)K9me3 peptide (N-terminally fluorescein-labelled); assay: fluorescence polarisation; FAM-labelled H3(1-15) peptide, recombinant protein titrated; RT; as described (ref. 28)
T2 chain: ARTKQTARKSTGGKA

[4] = biological target: T3, H3(1-15)K9me3-FAM peptide (C-terminally fluorescein-labelled); assay: as above
T3 chain: ARTKQTARKSTGGKA

[5] = biological target: T4, H3(1-15)unmodified-FAM peptide (C-terminally fluorescein-labelled); assay: as above
T4 chain: ARTKQTARKSTGGKA

B1: hTTD-PHD (domain or fragment)
chain: MWDETELGLYKVNEYVDARDTNMGAWFEAQVVRVTRKAPSRDEPCSSTSRPALEEDVIYHVKYDDYPENGVVQMNSRDVRARARTIIKWQDLEVGQVVMLNYNPDNPKERGFWYDAEISRKRETRTARELYANVVLGDDSLNDCRIIFVDEVFKIERPGEGSPMVDNPMRRKSGPSCKHCKDDVNRLCRVCACHLCGGRQDPDKQLMCDECDMAFHIYCLDPPLSSVPSEDEWYCPECRND
modifications: not checked
Kd [1]: 16.2 µM

B3: mTTD-PHD V1 K302A; S303A (protein)
chain: VWEDTDLGLYKVNEYVDVRDNIFGAWFEAQVVQVQKRALSEDEPCSSSAVKTSEDDIMYHVKYDDYPEHGVDIVKAKNVRARARTVIPWENLEVGQVVMANYNVDYPRKRGFWYDVEICRKRQTRTARELYGNIRLLNDSQLNNCRIMFVDEVLMIELPKERRPLIASPSQPPPALRNTGAAGPSCRFCKDDENKPCRKCACHVCGGREAPEKQLLCDECDMAFHLYCLKPPLTSVPPEPEWYCPSCRTDSSEVVQAGE
response (fraction bound) [2]: 0.2

B5: hTTD-PHD module carrying the nine amino acid insertion of mLinker 2 V1 (domain or fragment)
chain: MWDETELGLYKVNEYVDARDTNMGAWFEAQVVRVTRKAPSRDEPCSSTSRPALEEDVIYHVKYDDYPENGVVQMNSRDVRARARTIIKWQDLEVGQVVMLNYNPDNPKERGFWYDAEISRKRETRTARELYANVVLGDDSLNDCRIIFVDEVFKIERPGEGSPMVDNPMRPPPALRNTGKSGPSCKHCKDDVNRLCRVCACHLCGGRQDPDKQLMCDECDMAFHIYCLDPPLSSVPSEDEWYCPECRNDASEVVLAGE
modifications: not checked
Kd [3]: > 50 µM | Kd [4]: 6.9 µM | Kd [5]: 4.5 µM

B6: hTTD-PHD, mLinker2 V1* (domain or fragment)
chain: B5 chain
modifications: not checked
Kd [1]: > 100 µM

Results, then the binder that gave them:

response (fraction bound) [2]: 0.87
B2: mTTD-PHD V1 P293A; P294A; P295A (protein)
chain: B3 chain with P172A, P173A, P174A, A181K, A182S

response (fraction bound) [2]: 0.97
B4: mTTD-PHD V1 R298A (protein)
chain: B3 chain with R177A, A181K, A182S
